Patent publication US20240382628A1

Molecular target: CD11b on cells in whole blood (species not stated) (Homo sapiens (Human)) (UniProt P11215)
Assay: adhesion of antibody-bearing backpacks to cells in whole blood

% of CD14+ monocytes with adhered backpacks: 95%
Substance: CD11b antibody (M1/70 clone, Biolegend Purified anti-mouse/human CD11b Antibody Cat #101201/101202), on polymeric particles (backpacks)
